B1: HK-Q11 β-sheet fibrillizing peptide (nanofibers) (peptide)
peptide: QQKFQFQFHQQ
notes: Synthetic peptide assembled into nanofibers
B2: Tryptophan-terminated βTail (peptide)
peptide: WGSGSMALKVELEKLKSELVVLHSELHKLKSEL
notes: Synthetic peptide; also called W-βTail; W-βT
B3: Q11 β-sheet fibrillizing peptide (assembled as Q11 nanofibers, gels or microgels) (peptide)
peptide: QQKFQFQFEQQ
notes: Synthetic peptide; stands in the assays as a supramolecular nanofiber of many copies; also called Q11 gels; Q11 microgels

Key:
[1] = molecular target: the molecule itself; test: TEM and thioflavin T fluorescence
[2] = molecular target: B3; test: circular dichroism
[3] = molecular target: the molecule itself; test: circular dichroism (FIGS. 1B-C)
[4] = molecular target: B3; test: loss of tryptophan fluorescence from the supernatant
[5] = molecular target: T1, βTail-cutinase (fusion of βTail and the fungal enzyme cutinase); test: loss of protein from the supernatant (µBCA)
T1 construct: also called βT-cut

[6] = molecular target: gold-labeled streptavidin (streptavidin-5 nm gold particles, Invitrogen cat. # A32360) (UniProt P22629 37-163, limits assumed, bound to 5 nm gold particles); test: gold TEM
gold-labeled streptavidin (streptavidin-5 nm gold particles, Invitrogen cat. # A32360), sequence (P22629 37-163 limits assumed, one chain of several): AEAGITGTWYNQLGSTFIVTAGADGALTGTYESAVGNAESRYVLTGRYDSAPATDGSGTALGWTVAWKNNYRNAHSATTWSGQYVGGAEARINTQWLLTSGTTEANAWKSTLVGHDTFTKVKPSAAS

B1: binds [1].

MALKVELEKLKSELVVLHSELHKLKSEL [βTail peptide]: binds [2]; binds [3].

B2: binds [4].

B3: binds [3]; binds [5]; no binding [6].
